Measurements: the supplement of paper PMC9112550, “Optimization of the antimicrobial peptide Bac7 by deep mutational scanning” (BMC Biology, 2022)

Test system: Escherichia coli TOP10
Experiment: shrunken log2 fold change of peptide-encoding DNA abundance (4.5 h post-induction vs induction); higher = less antimicrobial activity (less host growth inhibition)
Settings: time post-induction: 4.5 h; library: site-saturation at positions 5, 18, 19, 20
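Further: peptides expressed intracellularly from a pBAD plasmid library in pooled LB shake-flask culture, induced with 0.3% L-arabinose, DNA abundance read by NGS, three biological replicates, DESeq2 with apeglm shrinkage.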

Sequence	shrunken log2 fold change
RRIRQRPPRLPRPRPRPKFAPRP	0.0489
RRIRGRPPRLPRPRPRPRCQPRP	0.835
RRIRKRPPRLPRPRPRPWAEPRP	0.0785
RRIRHRPPRLPRPRPRPCVLPRP	-0.14
RRIRLRPPRLPRPRPRPMVCPRP	-0.0634
RRIRLRPPRLPRPRPRPMKGPRP	0.0527
RRIRMRPPRLPRPRPRPYSCPRP	-0.706
RRIRPRPPRLPRPRPRPKVVPRP	0.454
RRIRIRPPRLPRPRPRPGHDPRP	0.144
RRIRMRPPRLPRPRPRPGVFPRP	0.858
RRIRKRPPRLPRPRPRPGTRPRP	0.165
RRIRYRPPRLPRPRPRPECPPRP	-0.00973
RRIRDRPPRLPRPRPRPREMPRP	0.00815
RRIRLRPPRLPRPRPRPIYGPRP	0.0275
RRIRIRPPRLPRPRPRPPAPPRP	0.298
RRIRHRPPRLPRPRPRPVLSPRP	-0.386
RRIRMRPPRLPRPRPRPMYYPRP	-0.339
RRIRSRPPRLPRPRPRPSFYPRP	-0.684
RRIRCRPPRLPRPRPRPPFQPRP	0.149
RRIRDRPPRLPRPRPRPFTMPRP	-0.0235
RRIRMRPPRLPRPRPRPSAVPRP	1.16
RRIRYRPPRLPRPRPRPVWMPRP	-0.283

Sequence	shrunken log2 fold change
RRIRFRPPRLPRPRPRPVGNPRP	0.294
RRIRQRPPRLPRPRPRPREVPRP	4.11
RRIRERPPRLPRPRPRPQPIPRP	0.0322
RRIRNRPPRLPRPRPRPVEHPRP	-0.123
RRIRLRPPRLPRPRPRPDMFPRP	-0.218
RRIRKRPPRLPRPRPRPKSEPRP	0.0409
RRIRARPPRLPRPRPRPIFFPRP	0.388
RRIRYRPPRLPRPRPRPFSQPRP	0.0654
RRIRKRPPRLPRPRPRPAISPRP	0.214
RRIRNRPPRLPRPRPRPEMWPRP	-0.0348
RRIRDRPPRLPRPRPRPGPKPRP	0.386
RRIRARPPRLPRPRPRPPIVPRP	-0.0791
RRIRTRPPRLPRPRPRPDPCPRP	0.0297
RRIRFRPPRLPRPRPRPLWAPRP	-0.151
RRIRMRPPRLPRPRPRPMKGPRP	0.235
RRIRHRPPRLPRPRPRPRMLPRP	-0.192
RRIRARPPRLPRPRPRPKSQPRP	0.286
RRIRSRPPRLPRPRPRPEDVPRP	0.183
RRIRVRPPRLPRPRPRPAYKPRP	-0.181
RRIRGRPPRLPRPRPRPWHWPRP	0.424
RRIRPRPPRLPRPRPRPVVIPRP	-0.191
RRIRERPPRLPRPRPRPRPRPRP	0.723

Sequence	shrunken log2 fold change
RRIRHRPPRLPRPRPRPGDGPRP	0.209
RRIRCRPPRLPRPRPRPLHWPRP	0.467
RRIRERPPRLPRPRPRPIVFPRP	0.0592
RRIRVRPPRLPRPRPRPHVQPRP	-0.0929
RRIRHRPPRLPRPRPRPCCFPRP	-0.245
RRIRVRPPRLPRPRPRPHMCPRP	-0.301
RRIRKRPPRLPRPRPRPTAEPRP	0.079
RRIRQRPPRLPRPRPRPPNNPRP	-0.259
RRIRRRPPRLPRPRPRPHESPRP	0.0784
RRIRCRPPRLPRPRPRPPSNPRP	-0.416
RRIRIRPPRLPRPRPRPLRTPRP	-0.0568
RRIRYRPPRLPRPRPRPWDAPRP	-0.796
RRIRCRPPRLPRPRPRPELIPRP	-0.0287
RRIRLRPPRLPRPRPRPKLPPRP	0.492
RRIRMRPPRLPRPRPRPMWLPRP	0.208
RRIRFRPPRLPRPRPRPHGHPRP	-0.18
RRIRPRPPRLPRPRPRPFTHPRP	-0.466
RRIRTRPPRLPRPRPRPQAPPRP	-0.1
RRIRKRPPRLPRPRPRPNSYPRP	0.141
RRIRARPPRLPRPRPRPFGAPRP	0.929
RRIRQRPPRLPRPRPRPSNPPRP	0.0169
RRIRTRPPRLPRPRPRPAKGPRP	0.0671

Sequence	shrunken log2 fold change
RRIRSRPPRLPRPRPRPMGQPRP	0.0126
RRIRQRPPRLPRPRPRPDERPRP	-0.00664
RRIRTRPPRLPRPRPRPYMGPRP	-1.93
RRIRTRPPRLPRPRPRPHVSPRP	-0.287
RRIRDRPPRLPRPRPRPCVMPRP	0.543
RRIRLRPPRLPRPRPRPVNVPRP	-0.00443
RRIRRRPPRLPRPRPRPKIMPRP	-0.0825
RRIRSRPPRLPRPRPRPVYEPRP	-0.617
RRIRFRPPRLPRPRPRPGEPPRP	0.118
RRIRKRPPRLPRPRPRPQECPRP	-0.00957
RRIRARPPRLPRPRPRPFQCPRP	0.0143
RRIRGRPPRLPRPRPRPAERPRP	0.388
RRIRVRPPRLPRPRPRPHQHPRP	-0.189
RRIRARPPRLPRPRPRPLECPRP	0.184
RRIRNRPPRLPRPRPRPGDRPRP	0.0819
RRIRVRPPRLPRPRPRPIWYPRP	-0.146
RRIRVRPPRLPRPRPRPRMLPRP	-0.103
RRIRYRPPRLPRPRPRPWMTPRP	-0.663
RRIRNRPPRLPRPRPRPDFPPRP	-0.0345
RRIRVRPPRLPRPRPRPIIGPRP	0.0272
RRIRARPPRLPRPRPRPFRQPRP	0.0566
RRIRRRPPRLPRPRPRPYKAPRP	-0.108

Sequence	shrunken log2 fold change
RRIRARPPRLPRPRPRPIAVPRP	0.166
RRIRTRPPRLPRPRPRPIGFPRP	-0.0989
RRIRFRPPRLPRPRPRPVIRPRP	-0.68
RRIRWRPPRLPRPRPRPHSIPRP	-0.143
RRIRERPPRLPRPRPRPHQSPRP	-0.0234
RRIRMRPPRLPRPRPRPNCDPRP	0.194
RRIRHRPPRLPRPRPRPFFRPRP	-0.0964
RRIRIRPPRLPRPRPRPVRCPRP	0.201
RRIRHRPPRLPRPRPRPSCDPRP	-0.336
RRIRWRPPRLPRPRPRPDNSPRP	-0.0707
RRIRKRPPRLPRPRPRPDTCPRP	0.0482
RRIRCRPPRLPRPRPRPRMLPRP	0.0183
RRIRNRPPRLPRPRPRPFSMPRP	-0.00235
RRIRERPPRLPRPRPRPEPSPRP	0.0429
RRIRWRPPRLPRPRPRPMAWPRP	-0.0156
RRIRVRPPRLPRPRPRPYLSPRP	-0.491
RRIRWRPPRLPRPRPRPSTHPRP	0.667
RRIRYRPPRLPRPRPRPPPLPRP	0.616
RRIRIRPPRLPRPRPRPDLAPRP	-0.169
RRIRNRPPRLPRPRPRPQVYPRP	-0.0412
RRIRLRPPRLPRPRPRPKICPRP	0.0221
